Laboratory results reported in patent US11078245B2, “Colon and pancreas cancer peptidomimetics” (PRECISION BIOLOGICS, INC., priority 2010, dated 2021).

Key:
[1] = system: human AsPC-1 pancreas tumor; test: AsPC-1 pancreas tumor xenograft model; assay type: in vivo, nude mice; details: 200 μg ip
Method: The NEO-101 antibody was tested for anti-tumor activity using the human AsPC-1 pancreas tumor xenograft model in nude mice. In this activity model, mice were implanted with human AsPC-1 tumor cells and allowed to establish to approximately 20-50 mm^3, measurable with a caliper in approximately 4-6 days. The treatment regimen included intraperitoneal injection of 200 μg of research-grade NEO-101 or a negative control human IgG (Pierce), followed on the next day with an intraperitoneal injection of IL-2-activated normal human PBMCs (approximately 2×10^7 per mouse per injection). Two cycles of treatment were administered such that antibody injections occurred on days 5 and 8, and PBMC injections occurred on days 6 and 9 in this study. Throughout the study, the tumor growth was monitored twice weekly by measurement with a caliper. Tumor volume was calculated using the equation: […], in units of cubic millimeters. If a tumor reached approximately 800 mm^3, or became ulcerated or necrotic, the mouse was humanely sacrificed. The study was terminated on study day 35.
This anti-tumor activity study was repeated in a separate study using the same AsPC-1 pancreas tumor model and the 200 μg dose of NEO-101 antibody. However, in the second study, four cycles of treatment were administered instead of two cycles. […]

[2] = system: LS174T colorectal tumor; test: LS174T colorectal tumor xenograft model; assay type: in vivo, nude mice; details: same treatment regimen; last day P=0.0145
Method: Since the LS174T colorectal tumor cell line served as a good target in vitro in the ADCC assay, this cell line was used in a xenograft tumor model. The LS174T cells were implanted subcutaneously in nude mice and the same treatment regimen was administered to these mice. […] Nonetheless, we observed a 2-3-fold reduction in tumor growth in NEO-101 treated mice compared to the 2 control groups of mice following the treatment cycles. The anti-tumor effect upon treatment with NEO-101 was significant on the last day of measuring tumors with P=0.0145 by one-way ANOVA. However, many of the tumors in the control groups became ulcerated and were greater than 1000 mm^3 and the study was terminated.

[3] = system: DU145 (Prostate); test: ADCC 4-hour 111-Indium release assay; assay type: cell-based, human
[4] = Preliminary non-GLP toxicity study; assay type: in vivo, BALB/c mice
Method: A preliminary non-GLP toxicity study using a research-grade preparation of NEO-101 was also conducted. Normal BALB/c mice were Injected with a single IV dose of saline, or 3, 10, 30, or 100 mg/kg of NEO-101 (n=3 female mice per group). In-life parameters measured included body weights and clinical observations. Mice were humanely sacrificed 72 hours following the injection and specimens were collected for analysis. Post-mortem parameters included macroscopic examination, blood cell counts, serum chemistries, and histopathological evaluation of selected major organs and tissues. […] No other toxicities were detected in these studies potentially associated with NEO-101, including during histopathological examination of the major organ systems in these mice.

[5] = system: human tissues; test: Immunohistochemistry of human tissues, overall; assay type: binding
Source text: Thus, the NPC-1 epitope is expressed by colon and pancreatic tumor cells but not normal colon or pancreatic […] cells. Therefore, the NPC-1 epitope may be used as a tumor-specific marker or a therapeutic target for colon and pancreatic cancer. Further, peptidomimetics of the NPC-1 epitope (e.g., the polypeptide of SEQ ID NO: 1-24) as described herein may be used in the detection and treatment of cancer (e.g., colon, pancreas, breast, lung, ovarian, stomach, esophageal).

[6] = system: Colorectal cancer biopsies; test: IHC staining of patient tumor biopsies with NEO-101; assay type: binding, human
Method: (§1) Patients enrolled on the clinical diagnostic study agreed to provide their tumor biopsy or surgical specimen to be stained immunohistochemically with NEO-101. Tumor sections were prepared as slides, and two additional slides were prepared for negative control (human IgG1) and positive control (cytokeratin) staining to ensure quality controls for the IHC method. More specifically, tumor biopsy specimens from colorectal and pancreas cancer patients were deparaffinized at about 60° C. for 30 min prior to staining with NEO-101. Subsequently, all staining steps were carried out at about 25° C. Slides (4 μm) were blocked with Peroxo-Bloc® inhibitor (Zymed Laboratories) for about 2 min, rinsed with phosphate-buffered saline (PBS), and blocked with CAS (Zymed) for an additional about 10 minutes. Slides were stained with about 10 μg/mL of biotin-labeled NEO-101 for 1 hour, and washed three times with PBS containing 0.05% Tween®-20 non-ionic detergent. […] A 1:400 dilution of peroxidase-conjugated streptavidin (Dako North America, Inc.) was then applied to the slides for about 30 minutes and slides were washed three times. A solution of DAB (Zymed) was applied for about 2-3 minutes then rinsed with PBS. A solution of hematoxylin was then applied for about 3 minutes and rinsed with tap water until clear. The slides were dehydrated with xylene and a coverslip was added using Permount® mounting medium. Additional consecutive slides were stained with human cytokeratin AE1/AE3 (Abcam plc) as a positive control, and human IgG1 isotype as a negative control (AXXORA, LLC).
(§2) All antibodies were biotinylated prior to use and tested independently at various concentrations using human tumor tissues known to react with the antibodies. Primary antibody (NEO-101) was used at about 10 μg/mL, detected with streptavidin-horseradish peroxidase conjugate, and mounted on slides. A positive staining scale ranging from +1 to +5 was applied to the staining results, measured by light microscopy. Tissues stained with NEO-101 were considered positive (+1 to +5) for an average of 79% of the patient tumor samples (30 of 38 of both colorectal and pancreatic cancer biopsies) including the 5 pancreatic tumor samples. Tissues that were negative or considered weak staining by the immunohistochemist were considered negative. These staining results are similar to results from several other studies completed with antibodies using tissue array slides, and both frozen and paraffin-embedded surgical specimens.

[7] = system: Pancreatic cancer biopsies; test: as above; assay type: binding, human
Method: as §1, §2

B1: NEO-101: Chimeric NEO-101 antibody, engineered in CHO-DG44 production cell clone 4B7; targets a variant of MUC5AC (protein)
light: QVVLTQSPVIMSASPGEKVTMTCSASSSISYMYWYQQKPGTSPKRWIYDTSKLASGVPARFSGSGSGTSYSLTISNMEAGDAATYYCHQRDSYPWTFGGGTNLEIK
heavy: QVQLKESGPDLVAPSQSLSITCTVSGFSLSKFGVNWVRQPPGKGLEWLGVIWGDGSTSYNSGLISRLSISKENSKSQVFLKLNSLQADDTATYYCVKPGGDYWGHGTSVTVSS
- tumor growth versus human IgG control ([1]; four cycles, with PBMCs, significant from Day 18 (P=0.0044)): very similar growth inhibition
- tumor growth versus control groups ([1]; two cycles, with IL-2-activated human PBMCs, significant from day 13 (P=0.0072)): Tumor growth inhibition was observed
- reduction in tumor growth compared to the 2 control groups [2]: 2-3 fold
- % Specific Killing (±SEM) ([3]; Effector:Target 12.5:1): −0.3 ± 0.1%
- % Specific Killing (±SEM) ([3]; Effector:Target 25:1): 0.3 ± 0.8%
- % Specific Killing (±SEM) ([3]; Effector:Target 50:1): −0.5 ± 0.3%
- serum aspartate transaminase (AST) ([4]; 2 out of 3 mice that received 100 mg/kg): mild, but statistically insignificant elevation
- body weight, blood cell counts, and histopathology of 7 major organs and tissues ([4]; single IV dose 3, 10, 30 or 100 mg/kg, 72 hours): no significant changes
- cross-reactivity in other normal human tissues stained [5]: no cross-reactivity
- % Positive by IHC with NEO-1O1 [6]: 76%
- Positive by IHC, subjects/total [6]: (25/33)
- % Positive by IHC with NEO-1O1 [7]: 100%
- Positive by IHC, subjects/total [7]: (5/5)
